Measured values reported in patent US20150037332A1, “TREATMENT OF METASTIC BREAST CANCER” (GENENTECH, INC., priority 2008, published 2015).

Key:
[1] = Multi-dose intravenous toxicity and toxicokinetic studies (Studies 00-377-1821 and 01-458-1821), cardiac endpoints; assay type: in vivo; conditions: 7-week and 26-week intravenous studies, cynomolgus monkeys
Description: In a 7-week intravenous toxicity and toxicokinetic study in cynomolgus monkeys with a 4-week recovery period (Study 00-377-1821), telemetry was measured in two animals per sex in the control and high-dose (150 mg/kg/dose) groups to collect electrocardiographic endpoints. At two timepoints before the initiation of treatment, and on Days 1 and 28, telemetered animals had systolic, diastolic, and mean arterial blood pressure, heart rate, PR interval, QRS, QT, and Lead II ECG data recorded. Four 1-minute tracings were collected for each animal from 2 to 22 hours after dosing and interpreted by a board-certified veterinary cardiologist. In addition to the routine serum chemistry parameters evaluated, serum was also analyzed for creatinine kinase isozymes and Troponin T on Study Days 2/3 and 44/45 for all animals. […] Recordings were taken at two timepoints before the initiation of treatment and once during Weeks 4, 16, and 26 on anesthetized animals and were interpreted by a board-certified veterinary cardiologist. In addition to the routine serum chemistry parameters evaluated, serum was also analyzed for Troponin T on Day 1 predose and on Days 114, 184, and 239 (recovery) for all animals.

[2] = Clinical trials as of November 2006, torsades de pointes; assay type: in vivo, human; conditions: pertuzumab-treated patients
[3] = Previous pertuzumab studies, PK summary (two-compartment model); assay type: in vivo, human
Excerpt: (§1) Population PK modeling of data from Phase Ia and Phase II studies support the continued use of fixed, non-weight-based dosing in female patients.

[4] = Phase II single-agent Study TOC2689g (ovarian cancer), serum pharmacokinetics; assay type: in vivo, human; conditions: for CL, systemic clearance (mean ± SD) / Vc, volume of central compartment (mean ± SD) / Vss, steady-state volume of distribution (mean ± SD) / t1/2 initial, initial distribution half-life (mean ± SD) / t1/2 terminal, terminal half-life (mean ± SD): intravenous infusion, 2-compartment population PK model
Excerpt: (§2) Mean serum Cmin and Cmax for the first two cycles of treatment in ovarian and metastatic breast cancer (MBC) patients are presented in Table 3.
(§3) PK parameters were estimated using a two-compartment model (see Table 4).

[5] = Phase II single-agent Study BO16934 (metastatic breast cancer), serum pharmacokinetics; assay type: in vivo, human; conditions: for CL, systemic clearance (mean ± SD) / Vc, volume of central compartment (mean ± SD) / Vss, steady-state volume of distribution (mean ± SD) / t1/2 initial, initial distribution half-life (mean ± SD) / t1/2 terminal, terminal half-life (mean ± SD): intravenous infusion, 2-compartment population PK model
Excerpt: as §2, §3

[6] = Phase II single-agent studies TOC2689g and BO16934 taken together, serum pharmacokinetics; assay type: in vivo, human
Excerpt: as §1, §2, §3

[7] = Phase Ib combination studies with capecitabine (BO17003) and docetaxel (BO17021), PK; assay type: in vivo, human
Excerpt: In both studies, the PK parameters for pertuzumab were similar to the PK parameters obtained in single-agent pertuzumab studies.

[8] = Phase II study with gemcitabine in platinum-resistant ovarian cancer (TOC3258g), PK; assay type: in vivo, human
[9] = system: non-small cell lung cancer (NSCLC) and breast cancer tumors (low and high HER2 expression levels); assay: Nonclinical dose-response xenograft studies; assay type: in vivo; conditions: nude mice, NSCLC and breast cancer xenografts
[10] = Preliminary population PK analysis of Studies TOC2297g, TOC2689g and B016934; assay type: in vivo, human; conditions: 153 patients, 1458 concentration-timepoints
[11] = system: incurable, locally advanced, recurrent or metastatic solid tumors; conditions: cited from earlier work
[12] = cited from earlier work
[13] = system: previously treated HER2-positive metastatic breast cancer; conditions: in combination with trastuzumab; 11 patients enrolled; cited from earlier work
[14] = two-compartment model, typical patient
[15] = two-compartment model, Studies TOC2689g and BO16934
[16] = Phase I, intravenously every 3 weeks

Substance: pertuzumab: antibody comprising the light and heavy chain amino acid sequences in SEQ ID NOs. 7 and 8; HER dimerization inhibitor binding HER2
- ECGs, blood pressures, and heart rates [1]: normal
- cardiac injury caused by treatment, by histopathology [1]: no evidence of cardiac injury
- serum chemistry parameters (Troponin T and creatine kinase isozymes) [1]: lack of increases
- association with an increase of TdP [2]: no association noted
- impact on the PK of co-administered chemotherapeutic agents ([3]; docetaxel and capecitabine in Phase Ib studies, gemcitabine in a Phase II study): no evidence that pertuzumab impacted the PK
- change in clearance with dose ([3]; doses from 2.0 to 15.0 mg/kg): no change in clearance
- systemic serum clearance [3, 14]: approximately 0.24 L/day
- terminal half-life [3, 14]: approximately 17 days
- Cmax, mean peak serum concentration ([4]; 420 mg (n = 61), Cycle 1): 231.7 µg/mL
- Cmin, mean (±SD) trough serum concentration ([4]; 420 mg (n = 61), Cycle 1): 64.6 (±20.9) μg/mL
- Cmax, mean peak serum concentration ([4]; 420 mg (n = 61), Cycle 2): 237.6 µg/mL
- Cmin, mean (±SD) trough serum concentration ([4]; 420 mg (n = 61), Cycle 2): 66.5 (±38.0) μg/mL
- CL, systemic clearance (mean ± SD) ([4]; 420 mg (n = 61)): 0.244 ± 0.095 L/day
- Vc, volume of central compartment (mean ± SD) ([4]; 420 mg (n = 61)): 2.70 ± 0.39 L
- Vss, steady-state volume of distribution (mean ± SD) ([4]; 420 mg (n = 61)): 4.73 ± 0.78 L
- t1/2 initial, initial distribution half-life (mean ± SD) ([4]; 420 mg (n = 61)): 1.37 ± 0.12 days
- t1/2 terminal, terminal half-life (mean ± SD) ([4]; 420 mg (n = 61)): 16.2 ± 4.7 days
- Cmax, mean peak serum concentration ([4]; 1050 mg (n = 62), Cycle 1): 390.9 µg/mL
- Cmin, mean (±SD) trough serum concentration ([4]; 1050 mg (n = 62), Cycle 1): 90.1 (±68.1) μg/mL
- Cmax, mean peak serum concentration ([4]; 1050 mg (n = 62), Cycle 2): 357.2 µg/mL
- Cmin, mean (±SD) trough serum concentration ([4]; 1050 mg (n = 62), Cycle 2): 94.7 (±47.3) μg/mL
- CL, systemic clearance (mean ± SD) ([4]; 1050 mg (n = 62)): 0.285 ± 0.119 L/day
- Vc, volume of central compartment (mean ± SD) ([4]; 1050 mg (n = 62)): 3.11 ± 0.72 L
- Vss, steady-state volume of distribution (mean ± SD) ([4]; 1050 mg (n = 62)): 5.39 ± 1.31 L
- t1/2 initial, initial distribution half-life (mean ± SD) ([4]; 1050 mg (n = 62)): 1.34 ± 0.11 days
- t1/2 terminal, terminal half-life (mean ± SD) ([4]; 1050 mg (n = 62)): 15.8 ± 5.2 days
- Cmax, mean peak serum concentration ([5]; 420 mg (n = 40), Cycle 1): 202.9 µg/mL
- Cmin, mean (±SD) trough serum concentration ([5]; 420 mg (n = 40), Cycle 1): 56.5 (±21.2) μg/mL
- Cmax, mean peak serum concentration ([5]; 420 mg (n = 40), Cycle 2): 181.2 µg/mL
- Cmin, mean (±SD) trough serum concentration ([5]; 420 mg (n = 40), Cycle 2): 62.6 (±21.1) μg/mL
- CL, systemic clearance (mean ± SD) ([5]; 420 mg (n = 40)): 0.255 ± 0.096 L/day
- Vc, volume of central compartment (mean ± SD) ([5]; 420 mg (n = 40)): 2.98 ± 0.67 L
- Vss, steady-state volume of distribution (mean ± SD) ([5]; 420 mg (n = 40)): 5.12 ± 0.98 L
- t1/2 initial, initial distribution half-life (mean ± SD) ([5]; 420 mg (n = 40)): 1.36 ± 0.13 days
- t1/2 terminal, terminal half-life (mean ± SD) ([5]; 420 mg (n = 40)): 16.3 ± 3.5 days
- Cmax, mean peak serum concentration ([5]; 1050 mg (n = 35), Cycle 1): 425.6 µg/mL
- Cmin, mean (±SD) trough serum concentration ([5]; 1050 mg (n = 35), Cycle 1): 75.9 (±34.5) μg/mL
- Cmax, mean peak serum concentration ([5]; 1050 mg (n = 35), Cycle 2): 542.9 µg/mL
- Cmin, mean (±SD) trough serum concentration ([5]; 1050 mg (n = 35), Cycle 2): 136.6 (±53.5) μg/mL
- CL, systemic clearance (mean ± SD) ([5]; 1050 mg (n = 35)): 0.225 ± 0.121 L/day
- Vc, volume of central compartment (mean ± SD) ([5]; 1050 mg (n = 35)): 2.95 ± 0.81 L
- Vss, steady-state volume of distribution (mean ± SD) ([5]; 1050 mg (n = 35)): 5.11 ± 1.12 L
- t1/2 initial, initial distribution half-life (mean ± SD) ([5]; 1050 mg (n = 35)): 1.39 ± 0.15 days
- t1/2 terminal, terminal half-life (mean ± SD) ([5]; 1050 mg (n = 35)): 20.5 ± 8.1 days
- steady-state serum Cmin ([6]; 840 mg loading dose, 420 mg maintenance dose every 3 weeks, by the second treatment cycle): approximately 60 mg/mL
- attainment of steady-state Cmin and Cmax ([6]; loading dose 840 mg followed by 420 mg every 3 weeks): by the second cycle
- mean systemic clearance, range over dose groups [6, 15]: 0.225 to 0.285 L/day
- mean volume of distribution of the central compartment, range over dose groups [6, 15]: 2.70 to 3.11 L
- effect on the PK of capecitabine and docetaxel ([7]; Phase Ib Studies BO17003 (capecitabine) and BO17021 (docetaxel)): does not alter the PK
- PK parameters for pertuzumab compared with single-agent pertuzumab studies ([7]; in combination with capecitabine or docetaxel): similar
- serum concentrations of pertuzumab compared with single-agent Phase II studies ([8]; in combination with gemcitabine): similar
- effect on the PK of gemcitabine or its major metabolite, dFdU ([8]; preliminary PK analysis): does not alter the PK
- steady-state trough concentrations at which >80% suppression of tumor growth was achieved [9]: 5 to 25 µg/mL
- suppression of tumor growth ([9]; steady-state trough concentrations 5-25 μg/mL): > 80%
- population variability of steady-state trough concentration and exposure with fixed-dosing, body surface area-based dosing, and weight-based dosing [10]: similar
- confirmed partial responses [11, 16]: Two
- tumor regression, patients evaluable for response [11, 16]: 3 of 20
- tolerability ([11]; given intravenously every 3 weeks): generally well tolerated
- antibodies to pertuzumab ([12]; Phase I patients): not detected
- linearity of pharmacokinetics ([12]; doses of 2.0-15 mg/kg): linear
- partial response (PR) [13]: Two out of the 11
